Experimental data published in paper PMC11888354.

Target: nucleosome with Cy5-labeled human histone octamer (H2A(K119C), H2B, H3(C110A), H4) reconstituted on lambda DNA (human) (UniProt P06899)
Experiment: single-molecule fluorescence colocalisation

- nucleosome co-localization dwell time τ slow (with 2 nM Nap1): 1.1 s
Substance: Cy3-labeled human linker histone H1.0(S22C) (from UniProt P07305 1-194) (natural protein)
